Reference: the nanobody polyreactivity screen of Harvey et al. (2022)

Experiment: yeast display, Sf9 membrane polyspecificity reagent, FACS + sequencing; frameworks hold sequencing errors
Procedure, shortened: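 Using colony PCR, genes from sorted yeast display clones were amplified, then sequenced on MiSeq at 2 × 250 and filtered by CDR length. The clones had been stained with 10% biotinylated, detergent-solubilized Sf9 membrane reagent for 1 hour at 4 °C and sorted by FACS into low and high (top ~1%) gates on anti-HA and streptavidin fluorescence. Polyreactivity labels come from the gate of origin.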

Sequence | polyreactivity (PSR sort gate)
QVQLVESGGGLVQAGGSLRLSCGASGFTFQFYDRGGYRQAPGKEREFVATITWRAGSTYSADSVKGRFTISRDNAKNTVYLQMNSLKPEDTAVYYCNADYYRHSLDYDYVGYDYWGQGTQVTVSS | low polyreactivity
QVQLVESGGGLVQAGGSLRLSCGASGFTFRPYAMGWYRQAPGKERELVAAITSGDSTNYADSVKGRFTISCDNAKNTVYLQMNSLKPEDTAVYYCAADSTGRPSVSYDYWGQGTQVTVSS | low polyreactivity
QVQLVESGGGLVQAGGSLRLSCGASGRIFGPYTMGWARQGPGKERELVARISRRGGSTYYADSVKGRFTISRDNAKNTVYLQMNSLKPEDTAVYYCARSQAVYDGWFAKFGYWGQGTQVTVSS | low polyreactivity
QVQLVESGGGLVQAGGSLRLSCGASGRIFTRYAMGWYRQAPGKERELVAAISYGGGGTYYADSVKGRFTISRDNAKNTVYLQINSLKPEDTAVYYCATDDPLSQINEQCMDYWGQGTQVTVSS | low polyreactivity
QVQLVESGGGLVQAGGSLRLSCGASGRTFYRYDMGWYRQAPGKERELVASITSGGNTNYADSVKGRFTISRDNAKNTVYLQMNSLKPEDTAVYYCAKEWYRVQHYRLITEFDYWGQGTQVTVSS | high polyreactivity
QVQLVESGGGLVQAGGSLRLSCGASGSIFKYYAMGWYREARGKERELVAAITWSGGRTNYADSVKGRFTISRDNAKNTVYLQMNSLKPEDTAVYYCAATRRRYRPYEYWGLGTQVTVSS | high polyreactivity
QVQLVESGGGLVQAGGSLRLSCGASGSTFAYYTMGWYRQAPAKERELVAAITSGGRTSYAESVKGRFTISRDNAKNTVYLQMNSLKPEDTAVYYCAKGRKPGYYYWGQGTQVTVSS | high polyreactivity
QVQLVESGGGLVQAGGSLRLSCGASGSTFDHYAMGWYRQAPGKERELVAAITRSGGSTYYADSVKGRFTISRDNAKNTVYIQMNSLKPEDTAVYYCNARRWITSDYWGQGTQVTVSS | high polyreactivity
QVQLVESGGGLVQAGGSLRLSCPASGFIFYDYAMGWYRQAPGKERELVAAISSGGSTNYADSVKGRFTISRDNAKNTVYLQMNSLKPEDTAVYYCAADDRSYATWKRDYDYWGQGTQVTVSS | low polyreactivity
QVQLVESGGGLVQAGGSLRLSCPASGFTFGSYAMGWYRQAPGKETEFVAVITRSGRTNYADSVKGRFTISRDNAKNTVYLQMNSLKPEDTAVYYCYADDVDDEVSPDLTEMDYWGQGTQVTVSS | low polyreactivity
QVQLVESGGGLVQAGGSLRLSCPASGFTFGYYAMGWYRQSPGKESELVATITSSGASTYADSVKGRFTISGDNAKNTVYLQMISLKPEDTAVYYCAADRLPSYWSWYGYDYWVQGTQVTVSS | high polyreactivity
QVQLVESGGGLVQAGGSLRLSCPASGFTIRRNAMGCYRQAPGKERELVAAITRGGGSTYYADSVKGRFTISRDNAKNTVYLQMNSLKPEDTAVYYCSADGYYQYESWGQGTQVTVSS | high polyreactivity
QVQLVESGGGLVQAGGSLRLSCPASGFYAMGWYRQAPGKERELVAAIRGSGSSTYYADSVKGRFTISRDNAKNTVYLQMNSLKPEDTAVYYCAKQGYLVWSGWRWYDYWGQGTQVTVSS | low polyreactivity
QVQLVESGGGLVQAGGSLRLSCPASGIIFDRNAMGWYRQAPVKERELVAAITGSGGSTYYADSVKGRFTISRDNAKNTVYLQMNSLKPEDTAVYYCAATYLSRWTLYDYWGQGTQVTVSS | high polyreactivity
QVQLVESGGGLVQAGGSLRLSCPASGINFIFYAMAWYREAPGKERELVATIRRSGSTYYADSVKGRFTISRDNAKNTVYLQMNSLKPEDTAVYYCNARYPYSYGDYWGQGTQVTVSS | high polyreactivity
QVQLVESGGGLVQAGGSLRLSCPASGITFGTNAMGWYIQAPGKERELVAAISKRGSSTYYADSVKGRFTISRDNAKNTVYLQMNSLKPEDTAVYYCNVVDERTRNLSKFYYWGQGTQVTVSS | high polyreactivity
QVQLVESGGGLVQAGGSLRLSCPASGLTFAYYTMGWYRQSPGKERELVADISRSGGSTYYADSVKGRFTISRDNAKNTVYLQMNSLKPEDSAVYYCAARANVYTKKRDYWGQGTQVTVSW | high polyreactivity
